According to PMC3892784 (mBio, 2013):
Positions count from the first letter of the chain named.

T1: T. maritima HK853 (T. maritima, UniProt Q9WZV7 232-489)
T1 sequence (looked up): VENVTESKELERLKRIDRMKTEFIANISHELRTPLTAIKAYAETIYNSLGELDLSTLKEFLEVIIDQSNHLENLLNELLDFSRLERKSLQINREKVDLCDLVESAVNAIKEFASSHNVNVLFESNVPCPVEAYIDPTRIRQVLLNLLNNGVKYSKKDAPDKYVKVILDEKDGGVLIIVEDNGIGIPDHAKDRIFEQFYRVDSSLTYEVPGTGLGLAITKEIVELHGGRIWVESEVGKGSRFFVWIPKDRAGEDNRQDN

T2: HK1190 (Myxococcus xanthus (strain DZ2 genomic …, UniProt Q1DD24 1-424))
T2 sequence (looked up): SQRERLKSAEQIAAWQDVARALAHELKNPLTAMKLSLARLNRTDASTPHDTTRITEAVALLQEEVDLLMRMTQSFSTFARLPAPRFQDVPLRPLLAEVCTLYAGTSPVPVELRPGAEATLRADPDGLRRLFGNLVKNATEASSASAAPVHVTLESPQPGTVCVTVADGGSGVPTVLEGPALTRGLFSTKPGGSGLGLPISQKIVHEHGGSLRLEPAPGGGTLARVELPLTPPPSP

T3: FrgB (Myxococcus xanthus (strain DZ2 genomic …, UniProt Q9RF10 1-510))
T3 sequence (looked up): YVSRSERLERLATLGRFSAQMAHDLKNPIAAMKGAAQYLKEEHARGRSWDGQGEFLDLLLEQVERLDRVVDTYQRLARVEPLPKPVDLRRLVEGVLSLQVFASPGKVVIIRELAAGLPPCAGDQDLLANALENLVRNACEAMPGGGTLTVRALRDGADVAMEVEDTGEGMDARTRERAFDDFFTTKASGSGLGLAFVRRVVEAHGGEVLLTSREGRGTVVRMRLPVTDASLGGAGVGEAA

T4: CrdA (Myxococcus xanthus (strain DZ2 genomic …, UniProt Q84I63 1-498))
T4 sequence (looked up): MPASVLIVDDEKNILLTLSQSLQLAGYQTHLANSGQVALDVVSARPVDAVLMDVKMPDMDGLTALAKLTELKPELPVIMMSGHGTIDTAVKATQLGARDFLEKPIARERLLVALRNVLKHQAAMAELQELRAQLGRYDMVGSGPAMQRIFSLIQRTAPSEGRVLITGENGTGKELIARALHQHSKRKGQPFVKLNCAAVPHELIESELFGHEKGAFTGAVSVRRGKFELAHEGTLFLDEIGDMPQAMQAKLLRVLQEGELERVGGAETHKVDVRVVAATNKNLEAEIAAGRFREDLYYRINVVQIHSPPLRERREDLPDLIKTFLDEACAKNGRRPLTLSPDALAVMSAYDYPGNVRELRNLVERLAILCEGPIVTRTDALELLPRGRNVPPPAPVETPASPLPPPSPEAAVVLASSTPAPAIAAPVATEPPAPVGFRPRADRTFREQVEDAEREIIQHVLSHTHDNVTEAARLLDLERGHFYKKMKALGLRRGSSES

B1: FrgC (domain or fragment, UniProt Q9RF09 1-466, looked up)
chain: MNESLRGTVLLVDDDPAVAKVLGALLTQAGLTTHAARDGQEALALLASKPVDVVVSDVRMPGMDGLQVLAEVARGWPDVPVILLTAHGTVPLAVEAMKAGAADFVLKPFDREEILFTVRKALLRAQG
B2: T. maritima RR468 (natural protein, UniProt Q9WYT9 1-122, looked up)
chain: MSKKVLLVDDSAVLRKIVSFNLKKEGYEVIEAENGQIALEKLSEFTPDLIVLDIMMPVMDGFTVLKKLQEKEEWKRIPVIVLTAKGGEEDESLALSLGARKVMRKPFSPSQFIEEVKHLLNE
B3: NtrC1189 (domain or fragment, UniProt Q1DD25 1-450, looked up)
chain: MKPGPRILIVDDDSGVLRALRGLLSDEGFTPVEARSAAEASQLLDAPEGPPAMMLLDLRMPGETGLELLARLPRPFPAPVVVLSGEASPAEAVQALRLGATDFVEKPPSPERLLTAVRNALALGS
B4: CrdS (domain or fragment)
chain: RLMASERIAAWQEVARRLAHEIKNPLTPIRMSLETLQAAQEAKHPRFQDMFKESAGVVLEEVDRLRRIVDEFSHFARMPKPQLAPVDLGELAQSVLALYATPPTGIQILPTLQTGVVARVDRDQLTQVLVNLVKNAEEAMASTGGTLRVRVRSTEADAIVEVEDSGPGIPLEHRARIFEPYFTTKDGGTGLGLAIASRILQEHGGKLEVGGEPGHGARFSLVLPRAA
B5: CrdS6 (domain or fragment)
chain: B4 chain with P28A, M31L, E34A, T35R

Columns and labels:
[1] = biological target: FrgB (Myxococcus xanthus (strain DZ2 genomic DNA)) (UniProt Q9RF10); assay: ITC
[2] = biological target: CrdS6 (Myxococcus xanthus (strain DZ2 genomic DNA)); assay: ITC
[3] = biological target: T. maritima HK853 (T. maritima) (UniProt Q9WZV7); assay: ITC
[4] = biological target: CrdS6 (Myxococcus xanthus (strain DZ2 genomic DNA)); assay: other fluorescence titration
T. maritima HK853 = biological target: T1, T. maritima HK853; assay: ITC
HK1190 = biological target: T2, HK1190; assay: ITC
FrgB = biological target: T3, FrgB; assay: ITC
FrgC = biological target: B1; assay: ITC
CrdA [5] = biological target: T4, CrdA; assay: ITC
NtrC1189 = biological target: B3; assay: ITC
T. maritima RR468 = biological target: B2; assay: ITC
CrdA [6] = biological target: T4, CrdA; assay: other fluorescence titration

Row | Molecule | Kd (T. maritima HK853) | Kd (HK1190) | Kd (FrgB) | Kd (NtrC1189) | also measured
1 | CrdA (from UniProt Q84I63 1-498) (domain or fragment) |  |  |  |  | Kd [1]: > 75 µM; Kd [2]: > 75 µM; Kd [3]: > 75 µM; Kd [4]: > 200 µM
2 | B1 | > 55 µM | > 35 µM | 1.23 µM |  | 
3 | B2 | 1.16 µM | > 55 µM | > 75 µM |  | 
4 | B3 | > 55 µM | 1.23 µM | > 75 µM |  | 
5 | B4 |  |  |  | > 75 µM | Kd (FrgC): > 75 µM; Kd (CrdA [5]): 1.41 µM; Kd (T. maritima RR468): > 75 µM; Kd (CrdA [6]): 2.28 ± 0.66 µM
6 | B5 |  |  |  | 2.09 µM | 
